{"source": "patent US10995116B2", "about": "“Peptide-induced NK cell activation” (University of Southampton, priority 2014, dated 2021)", "key": {"KIR2DS2 [1]": {"target": "T1, KIR2DS2 (Homo sapiens, UniProt P43631)", "assay": "pVav1/Vav1 Western blot, KIR2DS2-transfected NK cell line plus peptide-loaded HLA-C*0304:ICP47:721.221 cells", "format": "cell-based", "parameters": "expressed in transfected cells; host or cells: NKL cell line transfected with KIR2DS2; target cells L721.221-HLA-C*0304-ICP47", "conditions": "peptide 20 μM, 5 minutes", "method": "FIG. 7 1×10^6 L721.221-HLA-C*0304-ICP47 cells were incubated overnight at 26° C. with indicated peptides at a concentration of 20 μM. The cells were then incubated with the NKL cell line transfected with KIR2DS2 or transfected with KIR2DL2 for 5 minutes. The cells were lysed in 1% NP-40 and then analysed by Western blotting using antibodies to pVav1 and then following stripping of the membrane to Vav1. Shown are Western blots around the 98 kDa region, and below them the corresponding densitometries for 2 independent experiments.\nWith reference to FIG. 7, 1×10^6 HLA-C*0304:ICP47:721.221 cells were incubated overnight at 26° C. with indicated peptides at a concentration of 20 μM. The cells were then incubated with the NK cell line transfected with KIR2DS2 for 5 minutes. The cells were lysed in 1% NP-40 and then analysed by Western blotting using antibodies to pVav1 and then following stripping of the membrane to Vav1. Shown is a Western blots around the 98kDa region, and below them the corresponding densitometries for 3 independent experiments."}, "HLA-Cw*0102 [2]": {"target": "T2, HLA-Cw*0102 (Homo sapiens, UniProt P10321, A176E/A330V/A35S/A97T/C350S/D114A/D33F/L171W/L180R/L218V/M285V/M309V/M331V/P208H/Q277E/Q291P/R121W/R243W/R30K/S123C/S140Y/S297R/T329A/T363A/V272M/V319A)", "assay": "Peptide binding to HLA-Cw*0102: cell surface MHC class I staining of L721.174 cells by flow cytometry", "format": "cell-based", "conditions": "increasing peptide concentrations, overnight at 26° C.", "method": "(§1) The HLA-Cw*0102-positive cell line L721.174 was incubated with increasing concentrations of the LNPSVAATL (SEQ ID NO: 1) peptide or a control peptide VAPWNSLSL (SEQ ID NO: 48). Cells were stained for cell surface of MHC class I and analysed by flow cytometry. The mean fluorescence intensity of cell surface MHC Class I was plotted against the peptide concentration.\nas §1, with “With reference to FIG. 1, the HLA-Cw*0102-positive” for “The HLA-Cw*0102-positive”, “NO: 48) (known to bind HLA-Cw*0102) overnight at 26° C. 3×10^5 cells were used per condition. Following washing in PBS the cells” for “NO: 48). Cells”"}, "[3]": {"tested_on": "NK cells from KIR2DS2-positive or KIR2DS2-negative donor", "assay": "CD107a (LAMP) degranulation of CH-L antibody positive NK cells cultured with peptide-loaded L721.174 cells", "format": "cell-based", "method": "A. cells were incubated in the presence or absence of peptides, and then cultured with NK cells from either a KIR2DS2-positive or KIR2DS2-negative donor. The level of CD107a (LAMP) expression was measured on NK cells positive for the CH-L antibody. This antibody binds to KIR2DS2, KIR2DL2 and KIR2DL3. B. Summary data from 5 KIR2DS2-positive and 6 KIR2DS2-negative donors tested as per panel A of FIG. 2. To compare the different donors the data are normalized to 100% for the no peptide condition.\nWith reference to FIG. 2A, 3×10^5 L721.174 cells were incubated at 26° C. overnight in the presence or absence of peptides, and then cultured for four hours with NK cells from either a KIR2DS2-positive or KIR2DS2-negative donor. The level of CD107a (LAMP) expression was measured on NK cells positive for the CH-L antibody. This antibody binds to KIR2DS2, KIR2DL2 and KIR2DL3. […] With reference to FIG. 2B, summary data from 5 KIR2DS2-positive and 6 KIR2DS2-negative donors were tested as per panel A of FIG. 2. To compare the different donors the data are normalized to 100% for the no peptide condition."}, "L721.174 cells": {"tested_on": "L721.174 cells", "assay": "Cytotoxicity of NK cell clones against peptide-loaded L721.174 cells (Live/Dead fixable far-red stain)", "format": "cell-based", "conditions": "KIR2DS2-positive NK cell clones 4, 6, 9 only; not KIR2DS2-negative clone 27", "method": "(§2) L721.174 cells were incubated in the presence or absence of the peptides VAPWNSFAL (SEQ ID NO: 49) and the LNPSVAATL (SEQ ID NO: 1). The cells were then labeled with the cell tracker orange dye, and then cultured with KIR2DS2-positive NK cell clones (clones 4,6,9) or a KIR2DS2-negative NK cell clone (clone 27). Cytotoxicity was then determined using Live/Dead® fixable far-red stain.\nas §2, with “With reference to FIG. 3, 3×10^5 L721.174” for “L721.174”, “incubated at 26° C. overnight” for “incubated”, “cultured for four hours” for “cultured”"}, "DAP12": {"tested_on": "DAP12", "assay": "DAP12 phosphorylation: KIR2DS2 immunoprecipitation and phosphotyrosine Western blot, NK cell line transfected with KIR2DS2 plus peptide-loaded L721.174 cells", "format": "cell-based", "conditions": "peptide 20 μM, 5 minutes", "method": "(§3) FIG. 6 LNPSVAATL (SEQ ID NO: 1) activates NK cells expressing KIR2DS2. A. L721.174 cells were incubated with indicated peptides. The cells were then incubated with the NK cell line transfected with KIR2DS2. The cells were lysed and the KIR2DS2 was then immunoprecipitated from the mixture using the GL183 antibody coupled to protein-G beads. The immune precipitate was analysed by Western blotting using a phosphotyrosine antibody. The membrane was then stripped and reprobed with an antibody to DAP12 the molecule that transduces a positive signal from KIR2DS2. Shown are the regions on the blots at the level of DAP12 (12-15kDa). B. L721.174 cells were incubated with indicated peptides. The cells were then incubated with the NK cell line transfected with KIR2DS2 or transfected with KIR2DL2. The cells were lysed in 1% NP-40 and then analysed by Western blotting using antibodies to pVav1 and then following stripping of the membrane to Vav1. […]\n(§4) With reference to FIG. 6A, 1×10^6 L721.174 cells were incubated overnight at 26° C. with indicated peptides at a concentration of 20 μM. […] The immune precipitate was analysed by Western blotting using a phosphotyrosine antibody. […] The cells were lysed in 1% NP-40 and then analysed by Western blotting using antibodies to pVav1 and then following stripping of the membrane to Vav1. […]"}, "[4]": {"tested_on": "NK cells expressing KIR2DS2", "assay": "pVav1/Vav1 Western blot, NK cell line transfected with KIR2DS2 or KIR2DL2 plus peptide-loaded L721.174 cells", "format": "cell-based", "conditions": "peptide 20 μM, 5 minutes", "method": "as §3, §4"}, "HLA-C*0102": {"target": "HLA-C*0102 (Homo sapiens, UniProt P10321, A176E/A330V/A35S/A97T/C350S/D114A/D33F/L171W/L180R/L218V/M285V/M309V/M331V/P208H/Q277E/Q291P/R121W/R243W/R30K/S123C/S140Y/S297R/T329A/T363A/V272M/V319A)", "assay": "HPLC of HLA-C binding peptides eluted from 721.221 cells expressing HLA-C*0102:T2A:E19/3K:LNPSVAATL", "conditions": "peak in the eluate at the retention time of the control peptide", "method": "FIG. 8 The MHC class I-negative 721.221 cell line was transfected with a construct expressing HLA-C*0102:T2A:E19/3K:LNPSVAATL (SEQ ID NO: 1). The cells were washed and then the HLA-C binding peptides eluted using 10% acetic acid. The eluate was analysed by HPLC using a C18 column and a 4-60% acetonitrile gradient. The resulting profile was compared to the profile of the LNPSVAATL (SEQ ID NO: 1) peptide alone. The peptide elution peak is indicated with an arrow.\nThe cell line 721.221 expressing HLA-C*0102:T2A:E19/3K:LNPSVAATL. Following elution of the HLA-C binding peptides using 10% acetic acid the peptides were analysed by HPLC using a C18 column and an acetonitrile gradient."}, "KIR2DS2 [5]": {"target": "T1, KIR2DS2", "assay": "KIR2DS2-PE tetramer staining of peptide-loaded L721.174 cells by flow cytometry", "format": "binding", "parameters": "made in house", "conditions": "peptide 200 μM overnight at 26° C.", "method": "(SEQ ID NO: 1) peptide. A. The KIR2DS2 protein was expressed with a biotinylation C-terminal tag. Following biotinylation with the BirA enzyme, the KIR2DS2 protein was incubated with streptavidin-phycoerythrin to form fluorescent KIR2DS2-tetramers (KIR2DS2-PE). L721.174 cells were then incubated with indicated peptides. Cells were then stained with KIR2DS2-PE and analysed by flow cytometry. Shown are histogram plots. The bold numbers represent the mean fluorescent staining intensity of the KIR2DS2-PE staining of the cells in the presence of peptide and the non-bold numbers the staining in the absence of peptide. B. Represents the mean and standard error fluorescent intensities of the experiment in “A” following replicate experiments.\nA. L721.174 cells were incubated with indicated peptides. Cells were then stained with KIR2DS2-PE (see FIG. 4) and analysed by flow cytometry. Shown are histogram plots. […]\nWith reference to FIG. 4A, the KIR2DS2 protein was expressed as a recombinant protein with a biotinylation C-terminal tag. […] Cells were then stained with KIR2DS2-PE and analysed by flow cytometry. […]\nWith reference to FIG. 5A, 3×10^5 L721.174 cells were incubated overnight at 26° C. with indicated peptides at a concentration of 200 μM. Cells were then stained with KIR2DS2-PE (see FIG. 4) and analysed by flow cytometry. […]"}, "HLA-Cw*0102 [6]": {"target": "T2, HLA-Cw*0102", "conditions": "control peptide, stated as known; cited from earlier work"}}, "note": "Read-outs that look alike come from different tables or passages of the source.", "data": [{"sequence": "GAVPDLAWL (listed as Homo sapiens)", "values": [{"measurement": "activation of KIR2DS2 (pVav1)", "setting": "KIR2DS2 [1]", "value": "Activated"}]}, {"sequence": "GAVPDLATL (listed as Homo sapiens)", "values": [{"measurement": "activation of KIR2DS2 (pVav1)", "setting": "KIR2DS2 [1]", "value": "Activated"}]}, {"sequence": "LNPSVAATL (listed as Homo sapiens)", "values": [{"measurement": "binding to HLA-Cw*0102", "setting": "HLA-Cw*0102 [2]", "value": "Binds"}, {"measurement": "level of CD107a degranulation as compared to no peptide", "setting": "[3]; NK cells from KIR2DS2-positive donors", "value": "higher levels of degranulation"}, {"measurement": "level of CD107a degranulation as compared to the VAPWNSFAL peptide alone", "setting": "[3]; NK cells from KIR2DS2-positive donors, LNPSVAATL in combination with VAPWNSFAL", "value": "higher levels of degranulation"}, {"measurement": "killing of L721.174 cells as compared to no peptide or the VAPWNSFAL peptide", "setting": "L721.174 cells", "value": "killed the L721.174 cell line to greater extent"}, {"measurement": "phosphorylation of DAP12", "setting": "DAP12", "value": "induces phosphorylation of DAP12"}, {"measurement": "activation of NK cells expressing KIR2DS2", "setting": "[4]", "value": "Activates"}, {"measurement": "endogenous processing and presentation from construct", "setting": "HLA-C*0102", "value": "endogenously processed and presented"}, {"measurement": "KIR2DS2 binding to HLA-C*0102 and peptide (KIR2DS2-PE staining)", "setting": "KIR2DS2 [5]", "value": "Binds"}]}, {"sequence": "VAPWNSLSL (listed as Homo sapiens)", "values": [{"measurement": "binding to HLA-Cw*0102", "setting": "HLA-Cw*0102 [6]", "value": "known to bind"}]}, {"sequence": "VAPWNSFAL (listed as Homo sapiens) [reference compound]", "values": [{"measurement": "level of CD107a degranulation as compared to no peptide", "setting": "[3]; NK cells from both donors (KIR2DS2-positive and KIR2DS2-negative)", "value": "lower levels of degranulation"}]}]}
